Blank lines part the entries; values can stand above or below the binder they belong to.
Assays:
Max (151 residue form) = Max (151 residue form) (Homo sapiens, UniProt P61244-2 P61244-2:1-151); test: EMSA; complex b, 10 ng Max; 10 mM Tris pH 7.4, 80 mM NaCl, room temperature; conditions: tags: none stated; E. coli; chain copies: 2 (inferred); label: 32P 5' end
Experimental: (§1) Gel retardation DNA binding assays were performed essentially as described in Papoulas et al., (J. Biol. Chem. 267:10470–10480, 1992). Purified Max and c-Myc bHLH-Zip (which contained residues 342–439 of human c-Myc) were made from recombinant *E. coli* by standard techniques. GST-Mxi1 was made as follows: a fragment that contained the entire coding sequence of Mxi1 was amplified using polymerase chain reaction, subcloned into pGEX-2T (Pharmacia), and transformed into DH5α cells. The fusion protein was induced and isolated as described (Smith and Corcoran, *Current Protocols in Molecular Biology*, Ausubel et al., eds., Greene Publishing and Wiley-Interscience, New York, 1989). A double-stranded oligonucleotide, 5'-[…]-3' (SEQ ID NO: 9), that contained the CACGTG (SEQ ID NO: 10) consensus site was used. Approximately 0.5 μg of oligonucleotide was end labeled with [γ-^32P] ATP. Binding assays contained the indicated concentrations of purified Max, c-Myc bHLH-Zip, GST-Mxi1, and 0.5 ng of the labeled DNA probe. […]

[1] = biological target: LexA-Da (Escherichia coli (strain K12); Drosophila melanogaster (Fruit fly)) (UniProt P0A7C2); test: interaction trap (yeast two-hybrid), pJK103 LexAop-lacZ reporter, galactose
LexA-Da (Escherichia coli (strain K12); Drosophila melanogaster (Fruit fly)), sequence (P0A7C2 1-202, tags or fused parts left off): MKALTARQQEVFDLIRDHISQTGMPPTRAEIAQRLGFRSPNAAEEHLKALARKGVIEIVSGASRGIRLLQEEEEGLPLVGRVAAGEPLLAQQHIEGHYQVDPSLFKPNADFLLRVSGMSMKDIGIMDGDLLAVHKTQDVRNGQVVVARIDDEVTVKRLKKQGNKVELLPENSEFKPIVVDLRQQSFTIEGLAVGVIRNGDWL

LexA-Hairy (Drosophila) = test: as above
LexA-Hairy (Drosophila), sequence (P0A7C2 other isoform, or with tags, fused parts or gaps): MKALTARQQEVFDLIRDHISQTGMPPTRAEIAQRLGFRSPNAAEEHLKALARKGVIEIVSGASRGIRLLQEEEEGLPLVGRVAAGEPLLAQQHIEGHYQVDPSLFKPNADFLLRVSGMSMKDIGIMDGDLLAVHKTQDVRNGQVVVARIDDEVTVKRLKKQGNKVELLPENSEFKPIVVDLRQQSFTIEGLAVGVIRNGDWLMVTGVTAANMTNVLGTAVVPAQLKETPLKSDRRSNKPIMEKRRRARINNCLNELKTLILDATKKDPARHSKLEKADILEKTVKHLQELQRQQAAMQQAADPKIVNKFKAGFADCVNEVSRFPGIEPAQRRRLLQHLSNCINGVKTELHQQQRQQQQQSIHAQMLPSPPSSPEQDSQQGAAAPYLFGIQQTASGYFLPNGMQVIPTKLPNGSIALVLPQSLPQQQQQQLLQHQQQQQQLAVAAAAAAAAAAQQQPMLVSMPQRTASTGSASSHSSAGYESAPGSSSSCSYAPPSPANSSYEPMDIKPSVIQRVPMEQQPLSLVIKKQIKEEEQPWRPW

LexA-Id (human) = test: as above
LexA-Id (human), sequence (P0A7C2 other isoform, or with tags, fused parts or gaps): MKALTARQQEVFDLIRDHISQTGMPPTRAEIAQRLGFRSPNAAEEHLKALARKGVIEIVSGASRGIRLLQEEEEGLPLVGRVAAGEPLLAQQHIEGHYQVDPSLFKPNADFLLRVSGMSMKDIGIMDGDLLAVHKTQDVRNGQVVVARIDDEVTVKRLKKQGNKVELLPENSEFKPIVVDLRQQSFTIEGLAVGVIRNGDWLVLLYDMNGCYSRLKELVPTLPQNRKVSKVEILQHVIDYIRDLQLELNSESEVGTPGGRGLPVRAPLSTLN

LexA-Max (human) = test: interaction trap (yeast two-hybrid), pJK103 LexAop-lacZ reporter, galactose (<2 on glucose)
LexA-cMyc-Cterm (human) = test: as above
[2] = biological target: LexA-n-Myc-bHLH-Zip (Escherichia coli (strain K12); Homo sapiens (Human)); test: interaction trap (yeast two-hybrid), pJK103 LexAop-lacZ reporter, galactose (<2 on glucose); the text says that this bait does not interact
LexA-n-Myc-bHLH-Zip (Escherichia coli (strain K12); Homo sapiens (Human)), sequence (P0A7C2 1-202, tags or fused parts left off): as the sequence (P0A7C2 1-202, tags or fused parts left off) above

LexA-Mxi1 (human) = test: interaction trap (yeast two-hybrid), pJK103 LexAop-lacZ reporter, galactose; the same value 10 stands on glucose, where tagged Mxi1 is not induced, and the filing reads this as no self-interaction
[3] = biological target: c-Myc bHLH-Zip (amino acids 342-439) (human, UniProt P01106); test: gel retardation with an oligonucleotide holding the CACGTG site
Experimental: as §1

Max (151 residue form), sequence (P61244 other isoform, or with tags, fused parts or gaps): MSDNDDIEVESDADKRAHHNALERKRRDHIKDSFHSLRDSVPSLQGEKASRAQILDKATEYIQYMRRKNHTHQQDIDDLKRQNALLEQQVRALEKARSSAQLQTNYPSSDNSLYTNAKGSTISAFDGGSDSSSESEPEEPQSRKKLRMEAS

B1: Myc-Max consensus site oligonucleotide (dsDNA)
DNA 1: GGAAGCAGACCACGTGGTCTGCTTCC
DNA 2: GGAAGCAGACCACGTGGTCTGCTTCC
binding result (Max (151 residue form)): binds

β-galactosidase (galactose) [1]: < 2
β-galactosidase (galactose) (LexA-Hairy (Drosophila)): < 2
β-galactosidase (galactose) (LexA-Id (human)): < 2
β-galactosidase (galactose) (LexA-Max (human)): 120
β-galactosidase (galactose) (LexA-cMyc-Cterm (human)): 10
β-galactosidase (galactose) [2]: 8
β-galactosidase (galactose) (LexA-Mxi1 (human)): 10
B2: tagged Mxi1 (the invariant activation-tagged moiety of pJG4-5 fused to Mxi1 residues 10-220) (protein)
chain: PPKKKRKVAYPYDVPDYAKPPRRLSRAQKHSSGTSNTSTANRSTHNELEKNRRAHLRLCLERLKVLIPLGPDCTRHTTLGLLNKAKAHIKKLEEAERKSQHQLENLEREQRFLKWRLEQLQGPQEMERIRMDSIGSTISSDRSDSEREEIEVDVESTEFSHGEVDNISTTSISDIDDHSSLPSIGSDEGYSSASVKLSFTSYRTQHDITVQGKIFTGPIQYKQSLKLGS

binding result [3]: no binding
B3: glutathione S-transferase (GST)-Mxi1 1-220 (other)
chain: MPSPRLQHSKPPRRLSRAQKHSSGTSNTSTANRSTHNELEKNRRAHLRLCLERLKVLIPLGPDCTRHTTLGLLNKAKAHIKKLEEAERKSQHQLENLEREQRFLKWRLEQLQGPQEMERIRMDSIGSTISSDRSDSEREEIEVDVESTEFSHGEVDNISTTSISDIDDHSSLPSIGSDEGYSSASVKLSFTSYRTQHDITVQGKIFTGPIQYKQSLKLGS
